Source: patent US20250163127A1
Where “and” joins values, the source holds several entries; their conditions need not be identical. Equal entries are not always repeated.

Key:
CD96 (human) = biological target: T1, CD96 (human) (UniProt P40200); experiment: flow cytometry, transfected HEK293 cells
T1 sequence: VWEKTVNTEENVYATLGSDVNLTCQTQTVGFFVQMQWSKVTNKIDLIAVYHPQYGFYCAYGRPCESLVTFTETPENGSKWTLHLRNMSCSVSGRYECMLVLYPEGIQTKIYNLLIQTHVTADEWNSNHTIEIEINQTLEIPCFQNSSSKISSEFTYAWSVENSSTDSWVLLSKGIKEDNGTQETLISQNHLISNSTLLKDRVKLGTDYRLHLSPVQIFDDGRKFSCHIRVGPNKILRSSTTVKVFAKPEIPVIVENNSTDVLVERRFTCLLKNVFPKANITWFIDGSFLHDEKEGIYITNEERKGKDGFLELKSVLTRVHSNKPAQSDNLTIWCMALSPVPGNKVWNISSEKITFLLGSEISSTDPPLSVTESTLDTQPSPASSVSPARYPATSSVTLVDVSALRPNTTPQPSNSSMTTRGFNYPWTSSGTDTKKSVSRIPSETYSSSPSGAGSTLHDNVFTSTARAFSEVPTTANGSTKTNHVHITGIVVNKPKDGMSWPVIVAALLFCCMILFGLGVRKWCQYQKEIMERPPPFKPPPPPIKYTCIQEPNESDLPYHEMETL

CD226 (human) = biological target: T2, CD226 (human) (UniProt Q15762); experiment: flow cytometry, transfected HEK293 cells
T2 sequence: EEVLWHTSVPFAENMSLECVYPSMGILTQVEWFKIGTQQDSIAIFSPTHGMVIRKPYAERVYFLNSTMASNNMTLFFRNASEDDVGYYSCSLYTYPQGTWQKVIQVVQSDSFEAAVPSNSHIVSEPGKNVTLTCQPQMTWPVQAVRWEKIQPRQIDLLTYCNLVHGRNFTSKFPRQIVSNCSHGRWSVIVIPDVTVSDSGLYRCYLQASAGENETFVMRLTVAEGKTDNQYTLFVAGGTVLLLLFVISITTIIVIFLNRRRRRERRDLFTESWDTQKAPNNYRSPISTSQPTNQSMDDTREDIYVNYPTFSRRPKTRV

TIGIT (human) = biological target: T3, TIGIT (human) (UniProt Q495A1); experiment: flow cytometry, transfected HEK293 cells
T3 sequence: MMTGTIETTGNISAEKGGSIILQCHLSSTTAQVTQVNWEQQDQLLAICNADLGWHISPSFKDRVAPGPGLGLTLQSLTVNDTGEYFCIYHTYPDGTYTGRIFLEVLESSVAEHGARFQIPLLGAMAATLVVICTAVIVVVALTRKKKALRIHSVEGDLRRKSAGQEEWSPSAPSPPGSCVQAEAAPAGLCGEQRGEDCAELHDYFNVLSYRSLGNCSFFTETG

CD112R (human) = CD112R (human) (UniProt Q6DKI7); experiment: flow cytometry, transfected HEK293 cells
PD-L1 (human) = experiment: flow cytometry, CHO cells expressing PD-L1
CD28 (human) = CD28 (human) (UniProt P10747); experiment: flow cytometry, Jurkat cells (CD28)

Chain of CD112R (human) (Q6DKI7 whole entry): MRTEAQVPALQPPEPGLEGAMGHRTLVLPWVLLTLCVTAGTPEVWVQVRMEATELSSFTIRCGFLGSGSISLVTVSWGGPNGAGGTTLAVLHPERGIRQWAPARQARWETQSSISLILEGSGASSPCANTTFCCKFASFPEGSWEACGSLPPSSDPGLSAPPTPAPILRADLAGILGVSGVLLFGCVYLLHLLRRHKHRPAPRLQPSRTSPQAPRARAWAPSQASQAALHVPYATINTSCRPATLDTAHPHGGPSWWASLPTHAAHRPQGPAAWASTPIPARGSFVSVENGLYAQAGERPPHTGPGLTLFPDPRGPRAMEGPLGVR
Chain of PD-L1 (human) (chain, as listed by the source): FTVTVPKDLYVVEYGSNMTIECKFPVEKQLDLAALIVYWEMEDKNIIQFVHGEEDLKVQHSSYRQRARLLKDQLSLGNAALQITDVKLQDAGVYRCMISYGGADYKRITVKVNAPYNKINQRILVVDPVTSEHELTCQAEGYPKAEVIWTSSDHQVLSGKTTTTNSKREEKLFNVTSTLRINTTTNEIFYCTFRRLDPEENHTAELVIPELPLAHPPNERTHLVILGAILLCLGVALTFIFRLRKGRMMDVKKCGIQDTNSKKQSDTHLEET
Chain of wild-type CD155 IgV-Fc (Fc fusion) (chain): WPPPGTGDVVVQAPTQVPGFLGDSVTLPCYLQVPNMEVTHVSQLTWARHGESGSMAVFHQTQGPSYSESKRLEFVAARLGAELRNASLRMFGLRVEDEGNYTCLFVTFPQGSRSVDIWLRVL

MFI at 100 nM (CD96 (human))	MFI at 100 nM (CD226 (human))	MFI at 100 nM (TIGIT (human))	MFI at 100 nM (CD112R (human))	Substance	also measured
2760	2570	2210	–	variant CD155 IgV-Fc, Q62F (Fc fusion)	–
1830	2210	4320	1760	variant CD155 IgV-Fc, S52L, L104E (Fc fusion)	fold increase to WT ECD (CD96 (human)): 0.02 fold; fold increase to WT ECD (CD112R (human)): 0.99 fold
1860	2430	–	–	variant CD155 IgV-Fc, S52M, V57L (Fc fusion)	–
1540	3790	–	–	variant CD155 IgV-Fc, L104Q (Fc fusion)	–
–	–	–	–	variant CD80 E35D/D46E/M47V/A71D (Fc fusion)	MFI at 33.3 nM (PD-L1 (human)): 549 MFI
1740	2150	2400	–	variant CD155 IgV-Fc, S42N, S52Q, Q62F (Fc fusion)	–
1620	2190	–	1740	variant CD155 IgV-Fc, S42L (Fc fusion)	–
2360	3170	2970	–	variant CD155 IgV-Fc, S52R, Q62F, L104Q, G111R (Fc fusion)	–
2320	2640	–	–	variant CD155 IgV-Fc, S42L, S52L, Q62F, L104Q (Fc fusion)	–
2560	2130	2430	–	variant CD155 IgV-Fc, S42W (Fc fusion)	–
1480	2080	–	–	variant CD155 IgV-Fc, S42C, S52M, Q62F (Fc fusion)	–
–	–	3820	–	variant CD155 IgV-Fc, P18S, V41A, S42G, T45G, L104N (Fc fusion)	–
1700	2140	–	–	variant CD155 IgV-Fc, S42W, S52Q, V57L, Q62Y (Fc fusion)	–
1640	2160	–	–	variant CD155 IgV-Fc, S42A, S52Q, L104Q, G111R (Fc fusion)	–
1690	1910	–	1700	variant CD155 IgV-Fc, S42N (Fc fusion)	–
1540	1740	–	1690	variant CD155 IgV-Fc, S42N, S52E, V57L, L104E (Fc fusion)	–
1480	2150	–	–	variant CD155 IgV-Fc, S42C, S52L (Fc fusion)	–
4850	3960	4400	–	variant CD155 IgV-Fc, S52R (Fc fusion)	–
–	–	–	–	variant CD80 E35D/M38T/D46E/M47V/N48S (Fc fusion)	MFI at 33.3 nM (PD-L1 (human)): 19400 MFI
–	–	–	–	variant CD80 E35D/M47L/A71G/L85Q (Fc fusion)	MFI at 33.3 nM (CD28 (human)): 1440 MFI
–	–	–	–	variant CD80 E35D/K37E/M47V/N48D/L85Q/D90N (Fc fusion)	MFI at 33.3 nM (PD-L1 (human)): 26500 MFI
1610	1890	2260	1780	variant CD155 IgV-Fc, S42A, S52L, L104E, G111R (Fc fusion)	fold increase to WT ECD (CD96 (human)): 0.02 fold; fold increase to WT ECD (CD112R (human)): 1 fold
1560	2260	3140	1800	variant CD155 IgV-Fc, L104E (Fc fusion)	fold increase to WT ECD (CD96 (human)): 0.02 fold; fold increase to WT ECD (CD112R (human)): 1.01 fold
1710	2040	–	1610	variant CD155 IgV-Fc, S52W (Fc fusion)	–
1640	2160	–	–	variant CD155 IgV-Fc, S42G, S52L, Q62F, L104Q (Fc fusion)	–
1650	2000	–	1770	variant CD155 IgV-Fc, S52M, Q62Y (Fc fusion)	–
2450	5790	4810	–	variant CD155 IgV-Fc, T45Q, S52Q (Fc fusion)	–

MFI at 100 nM (CD96 (human))	MFI at 100 nM (CD226 (human))	MFI at 100 nM (TIGIT (human))	MFI at 100 nM (CD112R (human))	Substance	also measured
1800	2600	2660	–	variant CD155 IgV-Fc, S52E (Fc fusion)	–
–	2680	2220	–	variant CD155 IgV-Fc, S52L (Fc fusion)	–
1890 and 1680 and 3270	2320 and 2370 and 4690	1960 and 2180 and 4690	2170 and 1740 and 2940	wild-type CD155 IgV-Fc (Fc fusion)	fold increase to WT ECD (CD96 (human)): 0.02 fold; fold increase to WT ECD (CD112R (human)): 1.22 fold and 0.98 fold and 1.65 fold; fold increase to WT ECD (TIGIT (human)): 0 fold
1610	1900	–	–	variant CD155 IgV-Fc, S52M (Fc fusion)	–
1630	2250	2670	–	variant CD155 IgV-Fc, S52M, L104Q (Fc fusion)	–
1700	1900	–	1820	variant CD155 IgV-Fc, S42A, L104Q, G111R (Fc fusion)	–
–	–	–	–	variant CD80 E35D/D46V/M47L/V68M/L85Q/E88D (Fc fusion)	MFI at 33.3 nM (PD-L1 (human)): 137000 MFI
1700	2450	4840	1820	variant CD155 IgV-Fc, S42G (Fc fusion)	fold increase to WT ECD (CD96 (human)): 0.02 fold; fold increase to WT ECD (CD112R (human)): 1.02 fold
1820	2020	2290	1790	variant CD155 IgV-Fc, S52Q (Fc fusion)	fold increase to WT ECD (CD96 (human)): 0.02 fold; fold increase to WT ECD (CD112R (human)): 1 fold
3320	2790	–	–	variant CD155 IgV-Fc, G111R (Fc fusion)	–
1590	2100	–	1680	variant CD155 IgV-Fc, S42C (Fc fusion)	–
1520	2040	–	1700	variant CD155 IgV-Fc, Q62F, L104E, G111R (Fc fusion)	–
–	–	4160	–	variant CD155 IgV-Fc, A13R, D23Y, E37P, S42P, Q62Y, A81E (Fc fusion)	–
1620	2190	–	–	variant CD155 IgV-Fc, S42A (Fc fusion)	–
1580	2390	2290	–	variant CD155 IgV-Fc, T45Q, S52L, L104E, G111R (Fc fusion)	–
–	–	–	–	CD155 variant IgV-Fc P18S, H59N, V75A, L79P, A81T, F91S, L104M, T107M (Fc fusion)	MFI at 25 nM (TIGIT (human)): 800 MFI
–	2020	–	–	variant CD155 IgV-Fc, S42G, S52Q, L104E, G111R (Fc fusion)	–
1760	2300	–	1820	variant CD155 IgV-Fc, S42W, S52R, Q62Y, L104Q (Fc fusion)	–
2530	2270	–	1810	variant CD155 IgV-Fc, S42V, S52E (Fc fusion)	–
1530	5940	2860	–	variant CD155 IgV-Fc, T45Q, S52L, V57L, L104E (Fc fusion)	–
–	–	–	–	CD155 variant IgV-Fc V9L, V11M, P18S, N35S, S54G, Q62K, L79P, L104M, T107M, V115M (Fc fusion)	MFI at 25 nM (TIGIT (human)): 3000 MFI
2340	2080	4090	1790	variant CD155 IgV-Fc, T45Q, S52R, G111R (Fc fusion)	fold increase to WT ECD (CD96 (human)): 0.02 fold; fold increase to WT ECD (CD112R (human)): 1.01 fold
3340	–	–	–	variant CD155 IgV-Fc, P18L, E37S, Q62M, G80S, A81P, G99Y, S112N (Fc fusion)	–
1960	2310	2430	–	variant CD155 IgV-Fc, S42N, L104Q, G111R (Fc fusion)	–
1630	1910	–	–	variant CD155 IgV-Fc, S52W, L104E (Fc fusion)	–
1830	2620	2530	–	variant CD155 IgV-Fc, Q62Y (Fc fusion)	–
2140	2230	–	–	variant CD155 IgV-Fc, S42Q (Fc fusion)	–
